Results reported in patent US20230287087A1 (MAX PLANCK GESELLSCHAFT ZUR F RDERUNG DER WISSENSCHAFTEN E V, published 2023).

Experiments:
[1] = molecular target: Spike protein of patient-derived SARS-CoV-2 (D614G) (SARS-CoV-2, UniProt P0DTC2 14-1273); assay: cell-based or functional assay
[2] = molecular target: Californian RBD mutant (L452R) (SARS-CoV-2, UniProt P0DTC2 319-541); assay: BLI
[3] = molecular target: Brazilian RBD mutant (K417T, E484K, N501Y) (SARS-CoV-2, UniProt P0DTC2 319-541); assay: BLI
[4] = molecular target: South African RBD mutant (K417N, E484K, N501Y) (SARS-CoV-2, UniProt P0DTC2 319-541); assay: BLI
[5] = molecular target: T1, SARS-CoV-2 spike receptor-binding domain (RBD), wild type (SARS-CoV-2, UniProt P0DTC2 319-541); assay: BLI, biotinylated VHH on streptavidin sensor, RBD in solution
[6] = molecular target: B.1.617.2/Delta RBD (40592-V08H90, Sino Biologicals) (SARS-CoV-2, UniProt P0DTC2 319-541); assay: as above
[7] = molecular target: T1, SARS-CoV-2 spike receptor-binding …; assay: method not stated

B1: Re6H06 (VHH)
VHH: QVQLVESGGGLVQPGGSLRLSCAASGVTLDYYAIGWFRQAPGKEREGVSCTSSSDGSTYYADSVKGRFTISRDNAKNTVYLQMNSLKPEDTGVYYCAVVPQTYYGGKYYSQCTANGMDYWGKGTLVTVSS
In the case of B1, the “Lowest SARS-COV-2-neutralizing concentration” value [1] is reported as 50 pM, the Kd [2] is reported as 0.05 nM and the Kd [3] is reported as no more than 0.01 nM. The Kd [4] was no more than 0.01 nM, the Kd [5] was no more than 0.01 nM and the Kd [6] was no more than 0.01 nM. It also gave a Kd [7] of no more than 0.001 nM.
